Drawing on publication PMC10715212, this text covers stoichiometry N for 1 substance.

The stoichiometry N is a count of units in the complex or per binding partner.

The test addresses Strep-tag II-tagged VgrG spike protein of EAEC T6SS-1 (enteroaggregative Escherichia coli (EAEC) 17-2). Put plainly: cryo-EM structure; single particle cryo-EM of the co-produced, double-affinity and SEC purified PAAR^FL-^SVgrG-Tle1^H complex; AlphaFold2 model plus PDB 6SJL docked into the maps.

Regarding “Strep-tag II-tagged VgrG spike protein of EAEC T6SS-1 (natural protein)”, the stoichiometry N was determined as 3.
